Molecular target: the molecule itself
Assay: crystal structure

B1: Bacillus megaterium SirC (precorrin-2 dehydrogenase), His6-tagged (enzyme)
chain: MYTVMLDLKGRSVLVVGGGTIATRRIKGFLQEGAAITVVAPTVSAEINEWEAKGQLRVKRKKVGEEDLLNVFFIVVATNDQAVNKFVKQHIKNDQLVNMASSFSDGNIQIPAQFSRGRLSLAISTDGASPLLTKRIKEDLSSNYDESYTQYTQFLYECRVLIHRLNVSKSRKHELLTEIIDDQYRLSLVKQREFLQQIEKYK
stoichiometry N: 2
